Measured values: US20160137965A1

Legend:
α6β1 integrin [1] = target: α6β1 integrin (UniProt P23229); assay: solid-phase binding assay: plate coated with 0.4 µg/cm^2 511E8 with 1.6 µg/cm^2 211E8, dried 24 h, 10 nM α6β1 integrin, absorbance at 490 nm
α6β1 integrin [2] = target: α6β1 integrin (UniProt P23229); assay: solid-phase binding assay: plate coated with 0.5 µg/cm^2 511E8 with 20% glucose (or some other candidates), dried 24 h, stored 1 week at 4°C, 10 nM α6β1 integrin, absorbance at 490 nm
α6β1 integrin [3] = target: α6β1 integrin (UniProt P23229); assay: solid-phase binding assay: plate coated with 0.25 µg/cm^2 511E8 with 500 µg/mL gelatin, dried 1 h, 10 nM α6β1 integrin, absorbance at 490 nm
α6β1 integrin [4] = target: α6β1 integrin (UniProt P23229); assay: solid-phase binding assay: plate coated with 0.75 µg/cm^2 511E8, dried 1 h at room temperature, 10 nM α6β1 integrin, absorbance at 490 nm
α6β1 integrin [5] = target: α6β1 integrin (UniProt P23229); assay: solid-phase binding assay: plate coated with 0.4 µg/cm^2 511E8, not dried, 10 nM α6β1 integrin
α6β1 integrin [6] = target: α6β1 integrin (UniProt P23229); assay: solid-phase binding assay: plate coated with 0.5 µg/cm^2 511E8, not dried, 10 nM α6β1 integrin
α6β1 integrin [7] = target: α6β1 integrin (UniProt P23229); assay: solid-phase binding assay: plate coated with 0.5 µg/cm^2 511E8 with 0.05% gelatin, dried 24 h, stored 1 week at 4°C, 10 nM α6β1 integrin, absorbance at 490 nm
α6β1 integrin [8] = target: α6β1 integrin (UniProt P23229); assay: solid-phase binding assay: plate coated with 0.5 µg/cm^2 511E8 alone, dried 24 h, stored 1 week at 4°C, 10 nM α6β1 integrin, absorbance at 490 nm
α6β1 integrin [9] = target: α6β1 integrin (UniProt P23229); assay: solid-phase binding assay: plate coated with 0.25 µg/cm^2 511E8 with 167 µg/mL gelatin, dried 1 h, 10 nM α6β1 integrin, absorbance at 490 nm
α6β1 integrin [10] = target: α6β1 integrin (UniProt P23229); assay: solid-phase binding assay: plate coated with 0.5 µg/cm^2 511E8 with 0.1% BSA, dried 24 h, stored 1 week at 4°C, 10 nM α6β1 integrin, absorbance at 490 nm
α6β1 integrin [11] = target: α6β1 integrin (UniProt P23229); assay: solid-phase binding assay: plate coated with 1.0 µg/cm^2 511E8, not dried, 10 nM α6β1 integrin
α6β1 integrin [12] = target: α6β1 integrin (UniProt P23229); assay: solid-phase binding assay: plate coated with 0.4 µg/cm^2 511E8 with 0.8 µg/cm^2 211E8, dried 24 h, 10 nM α6β1 integrin, absorbance at 490 nm
α6β1 integrin [13] = target: α6β1 integrin (UniProt P23229); assay: solid-phase binding assay: plate coated with 1.0 µg/cm^2 521E8, not dried, 10 nM α6β1 integrin
α6β1 integrin [14] = target: α6β1 integrin (UniProt P23229); assay: solid-phase binding assay: plate coated with 0.5 µg/cm^2 521E8, not dried, 10 nM α6β1 integrin

Sequence of UniProt P23229 (P23229 other isoform, or with tags, fused parts or gaps limits assumed, chain 1 of 2): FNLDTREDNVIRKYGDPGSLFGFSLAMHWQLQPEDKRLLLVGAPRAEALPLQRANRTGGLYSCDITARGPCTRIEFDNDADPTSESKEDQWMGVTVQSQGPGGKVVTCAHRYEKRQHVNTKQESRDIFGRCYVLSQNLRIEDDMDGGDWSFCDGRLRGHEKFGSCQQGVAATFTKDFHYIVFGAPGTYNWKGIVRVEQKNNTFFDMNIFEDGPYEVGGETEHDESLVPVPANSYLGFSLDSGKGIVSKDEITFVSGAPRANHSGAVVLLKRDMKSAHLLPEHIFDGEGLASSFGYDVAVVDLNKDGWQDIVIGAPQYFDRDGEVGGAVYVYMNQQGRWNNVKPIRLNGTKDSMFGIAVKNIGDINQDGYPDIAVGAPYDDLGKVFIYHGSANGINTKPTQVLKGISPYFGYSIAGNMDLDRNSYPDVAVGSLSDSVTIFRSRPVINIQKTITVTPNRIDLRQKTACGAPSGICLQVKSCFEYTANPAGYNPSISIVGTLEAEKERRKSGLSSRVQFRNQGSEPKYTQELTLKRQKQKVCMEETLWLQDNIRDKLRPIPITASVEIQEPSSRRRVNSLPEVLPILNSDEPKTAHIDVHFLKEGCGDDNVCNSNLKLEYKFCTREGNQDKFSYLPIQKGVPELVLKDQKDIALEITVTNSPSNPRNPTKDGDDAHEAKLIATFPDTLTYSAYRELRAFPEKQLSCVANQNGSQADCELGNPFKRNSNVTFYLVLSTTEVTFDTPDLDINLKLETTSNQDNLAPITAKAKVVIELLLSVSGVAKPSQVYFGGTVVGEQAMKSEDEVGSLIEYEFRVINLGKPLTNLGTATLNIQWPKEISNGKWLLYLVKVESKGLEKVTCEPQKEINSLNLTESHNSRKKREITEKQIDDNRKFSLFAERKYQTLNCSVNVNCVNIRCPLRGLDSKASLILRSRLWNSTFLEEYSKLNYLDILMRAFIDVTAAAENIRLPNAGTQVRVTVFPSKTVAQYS
Sequence of UniProt P23229 (P05556 21-728 limits assumed, chain 2 of 2, further chain): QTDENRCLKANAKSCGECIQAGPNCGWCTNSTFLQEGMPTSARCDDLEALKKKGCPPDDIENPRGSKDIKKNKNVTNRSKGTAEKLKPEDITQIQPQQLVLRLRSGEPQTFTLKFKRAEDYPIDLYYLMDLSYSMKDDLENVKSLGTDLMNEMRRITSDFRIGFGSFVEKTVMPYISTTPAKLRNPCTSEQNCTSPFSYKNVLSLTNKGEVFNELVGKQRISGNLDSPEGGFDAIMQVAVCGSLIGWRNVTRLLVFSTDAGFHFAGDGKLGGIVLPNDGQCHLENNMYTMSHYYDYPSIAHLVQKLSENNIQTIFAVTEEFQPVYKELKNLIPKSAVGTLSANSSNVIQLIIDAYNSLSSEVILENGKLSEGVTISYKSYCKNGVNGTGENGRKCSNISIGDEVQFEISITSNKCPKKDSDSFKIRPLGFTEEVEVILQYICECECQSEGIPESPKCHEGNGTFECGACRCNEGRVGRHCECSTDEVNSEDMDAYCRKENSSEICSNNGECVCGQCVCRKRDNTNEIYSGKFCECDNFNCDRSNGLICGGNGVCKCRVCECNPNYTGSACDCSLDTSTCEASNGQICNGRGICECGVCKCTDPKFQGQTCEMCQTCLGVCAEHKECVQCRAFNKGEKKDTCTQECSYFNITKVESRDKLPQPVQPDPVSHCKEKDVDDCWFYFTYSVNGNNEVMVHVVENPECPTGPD

| Substance | integrin binding activity relative to undried 511E8 control (α6β1 integrin [1]) [%] | integrin binding activity relative to undried 511E8 control (100%) (α6β1 integrin [2]) [%] | integrin binding activity after drying (percent remaining) (α6β1 integrin [3]) [%] | decrease of the amount of bound integrin after drying, against the undried control (α6β1 integrin [4]) [%] | absorbance at 490 nm (amount of bound α6β1 integrin) (absorbance at 490 nm) (α6β1 integrin [5]) | absorbance at 490 nm (amount of bound α6β1 integrin) (absorbance at 490 nm) (α6β1 integrin [6]) | integrin binding activity relative to undried 511E8 control (100%) (α6β1 integrin [7]) [%] | integrin binding activity relative to undried 511E8 control (100%) (α6β1 integrin [8]) [%] | integrin binding activity after drying (percent remaining) (α6β1 integrin [9]) [%] | integrin binding activity relative to undried 511E8 control (100%) (α6β1 integrin [10]) [%] | absorbance at 490 nm (amount of bound α6β1 integrin) (absorbance at 490 nm) (α6β1 integrin [11]) | integrin binding activity relative to undried 511E8 control (α6β1 integrin [12]) [%] | absorbance at 490 nm (amount of bound α6β1 integrin) (absorbance at 490 nm) (α6β1 integrin [13]) | absorbance at 490 nm (amount of bound α6β1 integrin) (absorbance at 490 nm) (α6β1 integrin [14]) |
| --- | --- | --- | --- | --- | --- | --- | --- | --- | --- | --- | --- | --- | --- | --- |
| Human recombinant laminin 511E8 (from UniProt O15230 2534-3327; P07942 1561-1786; P11047 1362-1608) (ligand) | 80 | 40 | 70 | 30 | 1.07 | 2.62 | 90 | < 10 | 40 | 90 | 2.96 | 30 | – | – |
| Human recombinant laminin 521E8 (from UniProt O15230 2534-3327; P55268 1573-1798; P11047 1362-1608) (ligand) | – | – | – | – | – | – | – | – | – | – | – | – | 2.83 | 2.75 |
